Laboratory results published in paper PMC6991139 (ACS nano, 2019).

Assays:
[1] = target: PP7-PP7 single-chain coat protein dimer particle (PP7 virus (Leviviridae)) (UniProt P03630); assay: cryo-EM structure
[2] = target: ZZ-PP7 particle (ZZ-domains added to the N-terminus of the PP7 CP) (PP7 virus (Leviviridae)); assay: cryo-EM structure
[3] = target: PP7-ZZ particle (ZZ-domains fused to the C-terminus of the PP7 CP) (PP7 virus (Leviviridae)); assay: SEC + other: dynamic light scattering + other: TEM
[4] = target: the molecule itself; assay: SEC + other: dynamic light scattering + other: TEM

PP7-PP7 single-chain coat protein dimer particle (from UniProt P03630 1-128; P03630 1-128)
stoichiometry N [1]: 120 copies

ZZ-PP7 particle (ZZ-domains added to the N-terminus of the PP7 CP)
stoichiometry N [2]: 180 per capsid

PP7-ZZ particle (ZZ-domains fused to the C-terminus of the PP7 CP)
stoichiometry N [3]: 180 per capsid

B1: wild-type PP7 virus-like particle (PP7 coat protein) (natural protein)
chain: MSKTIVLSVGEATRTLTEIQSTADRQIFEEKVGPLVGRLRLTASLRQNGAKTAYRVNLKLDQADVVDCSTSVCGELPKVRYTQVWSHDVTIVANSTEASRKSLYDLTKSLVATSQVEDLVVNLVPLGR
binding result [4]: binds
